Experimental data published in article PMC3511314, “Functional Characterization of Two M42 Aminopeptidases Erroneously Annotated as Cellulases” (PLoS ONE, 2012).

B1: TmPep1050 (Thermotoga maritima MSB8) (protein)
chain: MKELIRKLTEAFGPSGREEEVRSIILEELEGHIDGHRIDGLGNLIVWKGSGEKKVILDAHIDEIGVVVTNVDDKGFLTIEPVGGVSPYMLLGKRIRFENGTIGVVGMEGETTEERQENVRKLSFDKLFIDIGANSREEAQKMCPIGSFGVYDSGFVEVSGKYVSKAMDDRIGCAVIVEVFKRIKPAVTLYGVFSVQEEVGLVGASVAGYGVPADEAIAIDVTDSADTPKAIKRHAMRLSGGPALKVKDRASISSKRILENLIEIAEKFDIKYQMEVLTFGGTNAMGYQRTREGIPSATVSIPTRYVHSPSEMIAPDDVEATVDLLIRYLGA
notes: recombinant TmPep1050 (TM1050 ORF)
B2: CelM (Acetivibrio thermocellus) (protein)
chain: MEEEDMFDLLKKFTGIVGVSGNEEEIREAIIEEIKECVDEIKVDTLGNLIAVKKGKGKKIMVAAHMDEIGVMVTYIDDKGFLRFSAVGGVSRYDCIGQRVKFKNGVVGAVYYEEKLEDMKNLQLSKMYIDIGARSREEALKMVNIGDVACFVGDAVLQGDTVISKALDNRSGCAVVVKAIKELKKTDNEIYFVFTVQEEVGLRGAKTAAFSIKPDIAIAVDVTMTGDTPESHPMEVKCGGGPAIKVKDRSVICHPEVRKLLEESAKRNNIPYQLEILEAGGSDPGSIHLTAGGIPSGAISIPVRYVHSPVETASMSDINNAVKLLVEAIC
notes: recombinant dodecameric CelM bearing a C-terminal hexahistidine tag

What was measured:
Experiment in all cases: Michaelis-Menten kinetics of pNA hydrolysis (Km)
Settings in all cases: Co2+
[1] = substrate: CC(C)C[C@H](N)C(=O)Nc1ccc([N+](=O)[O-])cc1; format: biochemical, Thermotoga maritima
[2] = substrate: CC[C@H](C)[C@H](N)C(=O)Nc1ccc([N+](=O)[O-])cc1; format: biochemical, Thermotoga maritima
[3] = substrate: CSCC[C@H](N)C(=O)Nc1ccc([N+](=O)[O-])cc1; format: biochemical, Thermotoga maritima
[4] = substrate: CC(C)C[C@H](N)C(=O)Nc1ccc([N+](=O)[O-])cc1; format: biochemical, Acetivibrio thermocellus
[5] = substrate: CC[C@H](C)[C@H](N)C(=O)Nc1ccc([N+](=O)[O-])cc1; format: biochemical, Acetivibrio thermocellus
[6] = substrate: CSCC[C@H](N)C(=O)Nc1ccc([N+](=O)[O-])cc1; format: biochemical, Acetivibrio thermocellus

Row | Protein | Km [1] | kcat [1] | kcat/Km [1] | Km [2] | kcat [2] | kcat/Km [2] | Km [3] | kcat [3] | kcat/Km [3] | Km [4] | kcat [4] | kcat/Km [4] | Km [5] | kcat [5] | kcat/Km [5] | Km [6] | kcat [6] | kcat/Km [6]
1 | B1 | 4000 ± 300 µM | 0.253 ± 0.019 s⁻¹ | 63.2 M⁻¹ s⁻¹ | 1900 ± 200 µM | 0.059 ± 0.008 s⁻¹ | 31.1 M⁻¹ s⁻¹ | 650 ± 50 µM | 0.009 ± 0.001 s⁻¹ | 13.8 M⁻¹ s⁻¹ | – | – | – | – | – | – | – | – | –
2 | B2 | – | – | – | – | – | – | – | – | – | 3500 ± 400 µM | 0.4 ± 0.03 s⁻¹ | 114 M⁻¹ s⁻¹ | 2800 ± 200 µM | 0.11 ± 0.01 s⁻¹ | 39.3 M⁻¹ s⁻¹ | 2900 ± 150 µM | 0.072 ± 0.006 s⁻¹ | 24.8 M⁻¹ s⁻¹
